Tests used:
Test in all cases: ITC; Microcal PEAQ-ITC, 20 °C; protein about 0.8–0.12 mM (so in the source), peptide about 1.0–1.5 mM; 100 mM NaCl, 20 mM HEPES, 2 mM β-mercaptoethanol (pH 7.0 in the methods, [7.4] in the footnote of Supplementary Table 1)
[1] = target: RDM15 Tudor domain (residues 598-662), wild type (Arabidopsis thaliana)
[2] = target: RDM15 Tudor domain (residues 598-662) D645A (Arabidopsis thaliana)
[3] = target: RDM15 Tudor domain (residues 598-662) Q654A (Arabidopsis thaliana)

| Substance | Kd [1] [µM] | stoichiometry N [1] | Kd [2] [µM] | stoichiometry N [2] | Kd [3] [µM] | stoichiometry N [3] |
| --- | --- | --- | --- | --- | --- | --- |
| H3K4me3 peptide | 66.2 | 0.9 | – | – | – | – |
| H3K4me2 peptide | 30.9 | 1.03 | – | – | – | – |
| H3(1-15) K4me1 peptide | – | 0.96 | 62.7 | 0.86 | 60.8 | 1.08 |
